System: peptide library, one residue held at a place counted from the S/T acceptor
Experiment: relative phosphorylation of the sub-library (ratio to the mean residue at this position); higher = residue favoured
In short: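 Purified recombinant kinases (human or orthologue constructs) were incubated in 384-well plates with biotinylated degenerate peptide sub-libraries, each fixing one residue at one position around a central Ser/Thr. Peptides were at 50 μM, with 50 μM ATP spiked with γ-32P-ATP, for 90 min under kinase-specific conditions. Spots on streptavidin membranes were phosphorimaged and quantified by densitometry. Relative sub-library phosphorylation is a ratio to the mean residue at that position.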

MAPK8, construct: aa1-384, human, sequence (P45983 1-384, looked up): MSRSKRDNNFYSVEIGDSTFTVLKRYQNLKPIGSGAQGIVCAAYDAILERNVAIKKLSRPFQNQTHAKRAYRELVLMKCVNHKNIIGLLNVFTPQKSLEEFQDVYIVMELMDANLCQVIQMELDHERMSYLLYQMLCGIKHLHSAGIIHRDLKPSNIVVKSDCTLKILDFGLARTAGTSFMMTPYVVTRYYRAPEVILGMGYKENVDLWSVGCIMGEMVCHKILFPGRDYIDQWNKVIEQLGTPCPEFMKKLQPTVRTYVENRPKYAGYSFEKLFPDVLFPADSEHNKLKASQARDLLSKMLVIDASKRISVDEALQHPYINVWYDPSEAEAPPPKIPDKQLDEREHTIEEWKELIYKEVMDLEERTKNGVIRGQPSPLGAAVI
MAPK14, construct: Full length, human, sequence (Q16539 whole entry, looked up): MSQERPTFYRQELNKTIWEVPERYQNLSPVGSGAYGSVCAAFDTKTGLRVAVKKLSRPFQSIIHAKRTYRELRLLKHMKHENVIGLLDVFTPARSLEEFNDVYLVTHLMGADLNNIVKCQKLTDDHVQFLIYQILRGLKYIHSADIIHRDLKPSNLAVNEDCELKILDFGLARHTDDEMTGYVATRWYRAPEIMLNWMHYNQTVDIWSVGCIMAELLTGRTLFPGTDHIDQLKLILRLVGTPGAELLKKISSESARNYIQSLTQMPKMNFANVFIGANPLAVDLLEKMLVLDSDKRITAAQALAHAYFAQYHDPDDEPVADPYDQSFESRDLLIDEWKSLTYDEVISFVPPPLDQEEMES
CDK12, construct: aa714-1063, human, sequence (Q9NYV4 714-1063, looked up): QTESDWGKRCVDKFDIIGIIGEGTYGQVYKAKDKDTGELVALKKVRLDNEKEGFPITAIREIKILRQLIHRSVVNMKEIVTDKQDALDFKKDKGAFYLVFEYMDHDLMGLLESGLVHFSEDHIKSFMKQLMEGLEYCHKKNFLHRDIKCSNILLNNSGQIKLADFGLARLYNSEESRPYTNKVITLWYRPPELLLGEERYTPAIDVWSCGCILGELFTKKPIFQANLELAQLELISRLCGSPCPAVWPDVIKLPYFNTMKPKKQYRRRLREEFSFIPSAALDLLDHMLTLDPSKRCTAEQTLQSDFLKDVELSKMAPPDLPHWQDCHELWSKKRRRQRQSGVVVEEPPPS
MAPKAPK5, construct: Full length, human, sequence (Q8IW41 whole entry, looked up): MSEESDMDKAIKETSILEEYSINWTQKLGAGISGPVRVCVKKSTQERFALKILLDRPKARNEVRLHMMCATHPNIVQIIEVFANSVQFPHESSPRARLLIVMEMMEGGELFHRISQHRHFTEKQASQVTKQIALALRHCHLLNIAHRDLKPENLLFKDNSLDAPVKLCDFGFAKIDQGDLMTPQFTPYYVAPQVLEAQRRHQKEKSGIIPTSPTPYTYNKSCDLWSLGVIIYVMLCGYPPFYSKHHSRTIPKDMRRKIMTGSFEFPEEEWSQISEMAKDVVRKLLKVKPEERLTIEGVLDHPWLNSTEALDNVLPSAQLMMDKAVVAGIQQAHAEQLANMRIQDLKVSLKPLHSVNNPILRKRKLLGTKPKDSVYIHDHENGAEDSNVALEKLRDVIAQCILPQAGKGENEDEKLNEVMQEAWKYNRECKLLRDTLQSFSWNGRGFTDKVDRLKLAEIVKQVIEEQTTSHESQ

CDK12, construct: aa714-1063, human (from UniProt Q9NYV4)
relative phosphorylation
Settings | at +1 | at +2 | at +3 | at +4 | at -1 | at -2 | at -3 | at -4 | at -5
A fixed | 0.323 | 0.895 | 0.799 | 0.848 | 1.09 | 1.19 | 1.04 | 1.11 | 1.13
D fixed | 0.154 | 0.546 | 0.392 | 0.912 | 0.38 | 0.47 | 0.629 | 0.861 | 0.879
E fixed | 0.155 | 0.5 | 0.446 | 0.923 | 0.438 | 0.456 | 0.707 | 0.9 | 0.735
F fixed | 0.341 | 0.984 | 0.553 | 0.891 | 0.844 | 0.667 | 0.778 | 1.07 | 1.21
G fixed | 0.715 | 1.28 | 0.854 | 1.43 | 1.58 | 1.7 | 2.58 | 1.27 | 1.09
H fixed | 0.261 | 1.21 | 1.79 | 1.44 | 0.876 | 0.811 | 0.897 | 1.04 | 1.01
I fixed | 0.309 | 0.911 | 0.929 | 0.828 | 0.364 | 0.973 | 0.971 | 0.891 | 0.868
K fixed | 0.27 | 1.34 | 0.977 | 0.804 | 1.01 | 0.659 | 0.63 | 0.832 | 0.847
L fixed | 0.36 | 0.853 | 0.545 | 0.765 | 0.834 | 0.863 | 0.754 | 0.946 | 0.939
M fixed | 0.357 | 1.16 | 0.523 | 0.832 | 1.65 | 1.28 | 0.819 | 1.04 | 0.924
N fixed | 0.227 | 0.992 | 0.721 | 0.973 | 0.801 | 0.713 | 0.686 | 0.893 | 0.82
P fixed | 12.1 | 0.747 | 1.26 | 0.992 | 1.08 | 1.84 | 1.33 | 1.06 | 1.28
Q fixed | 0.243 | 0.828 | 0.709 | 0.889 | 0.982 | 0.738 | 0.637 | 0.763 | 0.883
R fixed | 0.281 | 1.77 | 3.97 | 0.962 | 2.34 | 1.58 | 1.75 | 1.02 | 1.03
V fixed | 0.319 | 0.846 | 0.71 | 0.73 | 0.467 | 0.906 | 0.762 | 0.784 | 0.899
W fixed | 0.283 | 0.933 | 0.881 | 1.58 | 1.1 | 1.2 | 0.927 | 1.35 | 1.19
Y fixed | 0.274 | 1.2 | 0.934 | 1.21 | 1.17 | 0.956 | 1.1 | 1.19 | 1.27
pThr fixed | 0.363 | 0.528 | 0.566 | 0.999 | 0.336 | 0.48 | 0.83 | 0.846 | 0.975
pTyr fixed | 0.378 | 0.504 | 0.859 | 1.29 | 1.16 | 0.719 | 0.908 | 0.998 | 0.975

MAPK8, construct: aa1-384, human (from UniProt P45983)
relative phosphorylation
Settings | at +1 | at +2 | at +3 | at +4 | at -1 | at -2 | at -3 | at -4 | at -5
A fixed | 0.237 | 0.912 | 1.46 | 1.17 | 1.03 | 2.05 | 1.17 | 1.13 | 1.18
D fixed | 0.295 | 1.06 | 1.86 | 1.25 | 0.995 | 0.9 | 1.65 | 1.61 | 1.42
E fixed | 0.222 | 0.814 | 1.86 | 1.34 | 0.888 | 0.556 | 1.5 | 1.41 | 1.06
F fixed | 0.309 | 0.673 | 0.845 | 0.778 | 0.6 | 0.456 | 0.663 | 0.858 | 0.94
G fixed | 0.676 | 1.22 | 1.49 | 1.07 | 1.31 | 0.724 | 1.1 | 1.03 | 1.06
H fixed | 0.21 | 0.841 | 1.02 | 1.05 | 0.938 | 0.446 | 0.937 | 1.07 | 1.07
I fixed | 0.247 | 1.67 | 0.698 | 1.11 | 0.674 | 1.41 | 0.797 | 0.728 | 0.763
K fixed | 0.195 | 0.501 | 0.528 | 0.698 | 0.95 | 0.348 | 0.571 | 0.75 | 0.791
L fixed | 0.322 | 1.45 | 0.881 | 1.02 | 1.45 | 2.55 | 0.898 | 0.753 | 0.685
M fixed | 0.25 | 2 | 0.922 | 1 | 1.43 | 1.3 | 0.984 | 0.962 | 0.744
N fixed | 0.191 | 0.793 | 0.84 | 0.819 | 0.861 | 0.469 | 1.06 | 0.846 | 0.826
P fixed | 12.8 | 0.568 | 0.629 | 1.57 | 1.52 | 2.46 | 1.33 | 1.25 | 1.39
Q fixed | 0.193 | 0.851 | 0.826 | 0.913 | 1.37 | 0.665 | 1.01 | 1.08 | 1.21
R fixed | 0.18 | 0.575 | 0.619 | 0.547 | 0.886 | 0.484 | 0.879 | 0.778 | 0.974
V fixed | 0.254 | 1.87 | 0.809 | 0.909 | 0.844 | 1.48 | 0.91 | 0.891 | 0.849
W fixed | 0.196 | 0.53 | 0.878 | 0.937 | 0.582 | 0.338 | 0.727 | 0.993 | 0.858
Y fixed | 0.213 | 0.663 | 0.837 | 0.81 | 0.671 | 0.381 | 0.808 | 0.865 | 1.19
pThr fixed | 0.612 | 2.32 | 1.64 | 1.91 | 0.582 | 1.28 | 1.14 | 1.37 | 1.34
pTyr fixed | 0.866 | 1.99 | 8.3 | 3.22 | 1.84 | 1.25 | 1.58 | 2.57 | 1.93

MAPK14, construct: Full length, human (from UniProt Q16539)
relative phosphorylation
Settings | at +1 | at +2 | at +3 | at +4 | at -1 | at -2 | at -3 | at -4 | at -5
A fixed | 1.53 | 1.11 | 1.23 | 0.76 | 1.11 | 1.26 | 1.35 | 1.05 | 0.942
D fixed | 0.147 | 0.674 | 0.665 | 0.783 | 0.616 | 0.425 | 0.833 | 0.947 | 0.761
E fixed | 0.135 | 0.652 | 0.727 | 0.67 | 0.84 | 0.319 | 1.22 | 0.981 | 0.935
F fixed | 0.403 | 0.864 | 1 | 1.47 | 0.795 | 0.59 | 0.769 | 1.01 | 0.997
G fixed | 1.24 | 1.3 | 1.17 | 1.05 | 1.35 | 0.91 | 1.67 | 1.16 | 1.18
H fixed | 0.346 | 1.11 | 0.846 | 0.89 | 1.06 | 0.499 | 1.01 | 0.859 | 1
I fixed | 0.337 | 1.29 | 1.53 | 0.996 | 0.649 | 0.93 | 0.957 | 1.16 | 1.12
K fixed | 0.34 | 1.33 | 0.654 | 1.06 | 0.922 | 0.594 | 0.908 | 1.09 | 1.24
L fixed | 0.412 | 1.12 | 0.877 | 1.07 | 1.39 | 1.43 | 0.87 | 1.21 | 1.16
M fixed | 0.408 | 0.967 | 0.926 | 1.11 | 1.55 | 1.14 | 1.07 | 1.15 | 1.05
N fixed | 0.344 | 0.797 | 0.611 | 0.716 | 0.809 | 0.548 | 0.887 | 0.837 | 0.785
P fixed | 9.61 | 0.697 | 1.64 | 0.88 | 1.14 | 4.82 | 1.27 | 1.03 | 1.27
Q fixed | 0.277 | 0.903 | 0.673 | 0.895 | 1.1 | 0.686 | 0.892 | 0.898 | 0.871
R fixed | 0.424 | 1.44 | 0.926 | 1.21 | 1.42 | 0.752 | 1.11 | 0.959 | 1.03
V fixed | 0.366 | 1.09 | 1.43 | 0.801 | 0.755 | 1.09 | 0.727 | 0.767 | 0.757
W fixed | 0.37 | 0.751 | 1.1 | 1.42 | 0.637 | 0.507 | 0.64 | 0.945 | 0.746
Y fixed | 0.31 | 0.914 | 0.998 | 1.21 | 0.866 | 0.492 | 0.807 | 0.934 | 1.16
pThr fixed | 0.432 | 1.1 | 0.892 | 0.516 | 0.341 | 0.619 | 1.02 | 0.89 | 0.939
pTyr fixed | 0.397 | 0.625 | 1.16 | 0.674 | 0.632 | 0.435 | 0.834 | 0.943 | 1.33

MAPKAPK5, construct: Full length, human (from UniProt Q8IW41)
relative phosphorylation
Settings | at +1 | at +2 | at +3 | at +4 | at -1 | at -2 | at -3 | at -4 | at -5
A fixed | 0.697 | 1.12 | 1.09 | 0.728 | 0.899 | 1.63 | 0.654 | 0.868 | 0.78
D fixed | 0.317 | 1.3 | 0.82 | 1.17 | 0.706 | 0.282 | 0.157 | 0.486 | 0.433
E fixed | 0.474 | 1.29 | 0.757 | 1.01 | 0.557 | 0.442 | 0.171 | 0.864 | 0.313
F fixed | 1.17 | 0.746 | 1.48 | 0.96 | 0.965 | 0.679 | 0.639 | 1.11 | 1.79
G fixed | 0.396 | 0.947 | 0.903 | 1.05 | 0.427 | 1.07 | 0.5 | 0.658 | 0.527
H fixed | 1.13 | 1.11 | 1.01 | 1.17 | 1.22 | 0.742 | 1.14 | 1.03 | 0.763
I fixed | 1.38 | 0.921 | 0.694 | 0.883 | 1.18 | 0.522 | 0.228 | 0.834 | 1.24
K fixed | 0.641 | 0.729 | 0.646 | 0.917 | 0.966 | 0.769 | 0.754 | 1.23 | 0.777
L fixed | 1.02 | 0.704 | 0.819 | 0.794 | 1.33 | 1.16 | 0.521 | 1.19 | 1.59
M fixed | 1.15 | 1 | 1.05 | 0.912 | 1.8 | 1.77 | 0.816 | 1.27 | 1.27
N fixed | 0.552 | 1.08 | 0.687 | 0.986 | 1.09 | 0.903 | 0.341 | 0.642 | 0.633
P fixed | 0.338 | 0.956 | 1.46 | 1.25 | 0.529 | 0.292 | 0.322 | 0.512 | 0.748
Q fixed | 1.13 | 1.23 | 0.672 | 0.898 | 0.935 | 2.85 | 0.696 | 0.93 | 0.62
R fixed | 0.931 | 0.972 | 0.602 | 0.968 | 1.38 | 1.55 | 7.97 | 1.32 | 1.28
V fixed | 1.84 | 1.24 | 1.1 | 0.768 | 1.04 | 0.608 | 0.267 | 0.813 | 0.894
W fixed | 2.06 | 0.716 | 1.48 | 1.41 | 0.822 | 0.861 | 0.935 | 1.82 | 1.89
Y fixed | 1.78 | 0.942 | 1.73 | 1.14 | 1.17 | 0.862 | 0.885 | 1.43 | 1.47
pThr fixed | 0.688 | 0.697 | 0.784 | 1.49 | 0.462 | 0.387 | 0.267 | 0.599 | 0.61
pTyr fixed | 2.04 | 1.96 | 1.2 | 1.41 | 1.28 | 1.36 | 0.297 | 1.26 | 0.914

— the supplement of paper PMC9876800
